Columns and labels:
HeLa Kyoto [1] = assay: solubility in G1/S (NP-40 vs SDS abundance) (log2 ratio); higher = more soluble; details: cell cycle stage: G1/S
HeLa Kyoto [2] = assay: melting temperature (median over replicates), in situ; higher = more thermally stable
HeLa Kyoto [3] = assay: solubility change mitosis vs G1/S (difference of NP-40 vs SDS log2 ratios) (log2 ratio difference); higher = more soluble in mitosis
HeLa Kyoto [4] = assay: thermal stability score vs G1/S (z-score of summed log2 fold changes over temperatures); higher = more thermally stable than in G1/S
[5] = cell cycle stage: early G1 (4.5 h after nocodazole release)
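Throughout, for melting temperature (median over replicates), in situ: HeLa Kyoto cells synchronized by double thymidine or nocodazole block, proteins quantified by TMT10plex mass spectrometry, three independent biological replicates.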
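Throughout, for solubility change mitosis vs G1/S (difference of NP-40 vs SDS log2 ratios): synchronized HeLa Kyoto cells (double thymidine block for G1/S, nocodazole release for mitosis), protein amounts in NP-40 versus SDS lysates quantified by mass spectrometry, three biological replicates.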
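Throughout, for solubility in G1/S (NP-40 vs SDS abundance): HeLa Kyoto cells arrested at G1/S by double thymidine block, proteins quantified by TMT10plex mass spectrometry in mild NP-40 versus SDS extracts, three biological replicates.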
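Throughout, for thermal stability score vs G1/S (z-score of summed log2 fold changes over temperatures): synchronized HeLa Kyoto cells, proteins quantified by TMT10plex mass spectrometry, three biological replicates, mitosis taken 0.5 h after nocodazole release, G1/S directly after double thymidine block.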

Row | Sequence | solubility in G1/S (log2) (HeLa Kyoto [1]) | melting temperature (HeLa Kyoto [2]; cell cycle stage: G1/S) [°C] | melting temperature (HeLa Kyoto [2]; cell cycle stage: mitosis) [°C] | solubility change mitosis (log2) (HeLa Kyoto [3]) | thermal stability score (HeLa Kyoto [4]; [5]) | thermal stability score (HeLa Kyoto [4]; cell cycle stage: mitosis)
1 | MSSILPFTPPVVKRLLGWKKSAGGSGGAGGGEQNGQEEKWCEKAVKSLVKKLKKTGRLDELEKAITTQNCNTKCVTIPSTCSEIWGLSTPNTIDQWDTTGLYSFSEQTRSLDGRLQVSHRKGLPHVIYCRLWRWPDLHSHHELKAIENCEYAFNLKKDEVCVNPYHYQRVETPVLPPVLVPRHTEILTELPPLDDYTHSIPENTNFPAGIEPQSNYIPETPPPGYISEDGETSDQQLNQSMDTGSPAELSPTTLSPVNHSLDLQPVTYSEPAFWCSIAYYELNQRVGETFHASQPSLTVDGFTDPSNSERFCLGLLSNVNRNATVEMTRRHIGRGVRLYYIGGEVFAECLSDSAIFVQSPNCNQRYGWHPATVCKIPPGCNLKIFNNQEFAALLAQSVNQGFEAVYQLTRMCTIRMSFVKGWGAEYRRQTVTSTPCWIELHLNGPLQWLDKVLTQMGSPSVRCSSMS [SMAD2] | -0.0287 | 50.5 | 49.9 | -0.177 | 0.527 | 1.37
2 | MSSKKNRKRLNQSAENGSSLPSAASSCAEARAPSAGSDFAATSGTLTVTNLLEKVDDKIPKTFQNSLIHLGLNTMKSANICIGRPVLLTSLNGKQEVYTAWPMAGFPGGKVGLSEMAQKNVGVRPGDAIQVQPLVGAVLQAEEMDVALSDKDMEINEEELTGCILRKLDGKIVLPGNFLYCTFYGRPYKLQVLRVKGADGMILGGPQSDSDTDAQRMAFEQSSMETSSLELSLQLSQLDLEDTQIPTSRSTPYKPIDDRITNKASDVLLDVTQSPGDGSGLMLEEVTGLKCNFESAREGNEQLTEEERLLKFSIGAKCNTDTFYFISSTTRVNFTEIDKNSKEQDNQFKVTYDMIGGLSSQLKAIREIIELPLKQPELFKSYGIPAPRGVLLYGPPGTGKTMIARAVANEVGAYVSVINGPEIISKFYGETEAKLRQIFAEATLRHPSIIFIDELDALCPKREGAQNEVEKRVVASLLTLMDGIGSEVSEGQVLVLGATNRPHALDAALRRPGRFDKEIEIGVPNAQDRLDILQKLLRRVPHLLTEAELLQLANSAHGYVGADLKVLCNEAGLCALRRILKKQPNLPDVKVAGLVKITLKDFLQAMNDIRPSAMREIAIDVPNVSWSDIGGLESIKLKLEQAVEWPLKHPESFIRMGIQPPKGVLLYGPPGCSKTMIAKALANESGLNFLAIKGPELMNKYVGESERAVRETFRKARAVAPSIIFFDELDALAVERGSSLGAGNVADRVLAQLLTEMDGIEQLKDVTILAATNRPDRIDKALMRPGRIDRIIYVPLPDAATRREIFKLQFHSMPVSNEVDLDELILQTDAYSGAEIVAVCREAALLALEEDIQANLIMKRHFTQALSTVTPRIPESLRRFYEDYQEKSGLHTL [SPATA5] | -0.296 | 53 | 51.7 | 0.184 | 1.78 | -0.413
3 | MSSNECFKCGRSGHWARECPTGGGRGRGMRSRGRGGFTSDRGFQFVSSSLPDICYRCGESGHLAKDCDLQEDACYNCGRGGHIAKDCKEPKREREQCCYNCGKPGHLARDCDHADEQKCYSCGEFGHIQKDCTKVKCYRCGETGHVAINCSKTSEVNCYRCGESGHLARECTIEATA [CNBP] | -0.223 | 57.6 | 58.8 | -0.0883 | -1.16 | -2.48

From the supplement of paper PMC5998384
